Measured values taken from US20100111957A1 (TECHNION RESEARCH AND DEVELOPMENT FOUNDATION, published 2010).

Legend:
[1] = molecular target: T1, recombinant biotinylated single-chain HLA-A2/pp65 495-503 complex (human; cytomegalovirus (CMV)); assay: SPR, Biacore 2000; biotinylated HLA-A2/pp65 on streptavidin chip
[2] = molecular target: T1, recombinant biotinylated single-chain …

| Binder | koff [1] | kon [1] | Kd [2] |
| --- | --- | --- | --- |
| H9 Fab (soluble recombinant Fab, monomer) (Fab, V domains shown, also called Fab H9; H9 Fab monomer) VH: EVQLVQSGAEVKKPGSSVKVSCKASGGTFSSYAISWVRQAPGQGLEWMGGIIPIFGTANYAQKFQGRVTITADESTSTAYMELSSLRSEDTAVYYCARGDLYYYDSSGYPRYYFDYWGQGTLVTVSS VL: ETTLTQSPGTLSLSPGERATLSCRASQSVSSSYLAWYQQKPGQAPRLVIYGASSRATGIPDRFSGSGSGTDFTLTISRLEPEDFAVYYCQHYSTSPGFTFGQGTKLEIRR | 0.000879 s⁻¹ | 105000 M⁻¹ s⁻¹ | 8 nM |
| H9 whole IgG antibody (H9 Fab-derived IgG1, kappa) (antibody, V domains shown, also called H9 IgG; H9 IgG Ab) VH: EVQLVQSGAEVKKPGSSVKVSCKASGGTFSSYAISWVRQAPGQGLEWMGGIIPIFGTANYAQKFQGRVTITADESTSTAYMELSSLRSEDTAVYYCARGDLYYYDSSGYPRYYFDYWGQGTLVTVSS VL: ETTLTQSPGTLSLSPGERATLSCRASQSVSSSYLAWYQQKPGQAPRLVIYGASSRATGIPDRFSGSGSGTDFTLTISRLEPEDFAVYYCQHYSTSPGFTFGQGTKLEIRR | 0.00352 s⁻¹ | 599000 M⁻¹ s⁻¹ | 5 nM |
